Patent US20040171105
Residue numbers refer to the chain shown, from its start.

How the values were obtained:
[1] = target: GST fusion form of full-length human cIAP1, Q13490
[2] = target: T1, GST fusion form of full-length Drosophila DIAP1, Q24306
T1 chain: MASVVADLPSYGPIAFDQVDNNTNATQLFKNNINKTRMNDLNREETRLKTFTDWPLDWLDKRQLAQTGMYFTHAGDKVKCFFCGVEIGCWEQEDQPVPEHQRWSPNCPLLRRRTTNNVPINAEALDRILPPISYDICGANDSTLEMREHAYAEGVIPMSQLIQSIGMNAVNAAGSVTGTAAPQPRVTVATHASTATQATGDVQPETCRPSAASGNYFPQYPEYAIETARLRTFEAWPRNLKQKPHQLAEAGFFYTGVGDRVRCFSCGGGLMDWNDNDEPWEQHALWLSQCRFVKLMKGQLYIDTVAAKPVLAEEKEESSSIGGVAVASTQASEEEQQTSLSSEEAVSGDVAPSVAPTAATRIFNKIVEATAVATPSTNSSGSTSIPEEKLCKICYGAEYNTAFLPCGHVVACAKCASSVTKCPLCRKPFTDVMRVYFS

[3] = target: GST fusion form of full-length human XIAP, P98170
[4] = target: GST fusion form of full-length human cIAP2, Q13489
[5] = target: T2, Livin α (human, N-terminal hexa-His tagged), Q96CA5
T2 chain: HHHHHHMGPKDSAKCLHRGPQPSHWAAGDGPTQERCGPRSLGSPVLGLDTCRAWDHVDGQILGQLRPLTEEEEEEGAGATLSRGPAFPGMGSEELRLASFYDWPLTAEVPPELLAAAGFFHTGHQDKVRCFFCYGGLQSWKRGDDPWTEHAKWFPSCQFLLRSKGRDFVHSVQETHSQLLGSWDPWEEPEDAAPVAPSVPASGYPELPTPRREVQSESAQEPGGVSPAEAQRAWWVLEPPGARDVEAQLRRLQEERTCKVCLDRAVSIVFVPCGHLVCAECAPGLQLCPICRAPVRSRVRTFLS

[6] = target: T3, Livin β (human, N-terminal hexa-His tagged), Q96CA5
T3 chain: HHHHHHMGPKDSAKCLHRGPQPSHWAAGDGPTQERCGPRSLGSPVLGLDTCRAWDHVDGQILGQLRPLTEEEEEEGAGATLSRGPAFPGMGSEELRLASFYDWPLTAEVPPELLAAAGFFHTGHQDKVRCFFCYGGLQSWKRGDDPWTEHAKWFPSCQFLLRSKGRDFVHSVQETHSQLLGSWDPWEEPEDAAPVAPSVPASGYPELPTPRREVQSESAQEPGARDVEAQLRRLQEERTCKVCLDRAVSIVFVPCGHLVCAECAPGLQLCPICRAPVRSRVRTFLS

[7] = target: T4, Smac (purified recombinant), Q9NR28
T4 chain: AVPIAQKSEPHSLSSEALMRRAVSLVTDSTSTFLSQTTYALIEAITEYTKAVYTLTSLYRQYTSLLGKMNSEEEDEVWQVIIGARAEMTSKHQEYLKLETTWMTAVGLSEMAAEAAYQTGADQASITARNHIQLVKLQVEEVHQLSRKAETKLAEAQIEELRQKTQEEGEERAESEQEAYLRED

[8] = target: Survivin, O15392
[9] = target: mutant cIAP1 (recombinant cIAP1 mutated at the three preferred Omi cleavage sites, GST fusion) [GST: P08515]

GST fusion form of full-length human cIAP1, Q13490, sequence (Q13490 whole entry, the tested form may be a part): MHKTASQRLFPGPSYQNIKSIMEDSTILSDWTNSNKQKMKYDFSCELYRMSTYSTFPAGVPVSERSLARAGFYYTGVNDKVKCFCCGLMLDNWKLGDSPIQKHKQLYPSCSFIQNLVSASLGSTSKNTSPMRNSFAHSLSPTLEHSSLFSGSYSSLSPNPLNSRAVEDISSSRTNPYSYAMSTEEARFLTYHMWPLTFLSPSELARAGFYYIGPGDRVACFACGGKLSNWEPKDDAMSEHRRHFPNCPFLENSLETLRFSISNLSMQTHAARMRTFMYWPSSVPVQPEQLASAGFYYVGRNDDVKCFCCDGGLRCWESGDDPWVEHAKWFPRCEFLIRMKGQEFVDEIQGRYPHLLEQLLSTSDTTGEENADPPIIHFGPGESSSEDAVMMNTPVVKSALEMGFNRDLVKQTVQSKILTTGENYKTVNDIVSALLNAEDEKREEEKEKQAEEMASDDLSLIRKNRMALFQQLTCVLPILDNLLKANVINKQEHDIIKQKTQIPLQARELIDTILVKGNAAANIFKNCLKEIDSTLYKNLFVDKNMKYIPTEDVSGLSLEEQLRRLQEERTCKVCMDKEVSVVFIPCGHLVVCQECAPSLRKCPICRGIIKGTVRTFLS
GST fusion form of full-length human cIAP2, Q13489, sequence (Q13489 whole entry, the tested form may be a part): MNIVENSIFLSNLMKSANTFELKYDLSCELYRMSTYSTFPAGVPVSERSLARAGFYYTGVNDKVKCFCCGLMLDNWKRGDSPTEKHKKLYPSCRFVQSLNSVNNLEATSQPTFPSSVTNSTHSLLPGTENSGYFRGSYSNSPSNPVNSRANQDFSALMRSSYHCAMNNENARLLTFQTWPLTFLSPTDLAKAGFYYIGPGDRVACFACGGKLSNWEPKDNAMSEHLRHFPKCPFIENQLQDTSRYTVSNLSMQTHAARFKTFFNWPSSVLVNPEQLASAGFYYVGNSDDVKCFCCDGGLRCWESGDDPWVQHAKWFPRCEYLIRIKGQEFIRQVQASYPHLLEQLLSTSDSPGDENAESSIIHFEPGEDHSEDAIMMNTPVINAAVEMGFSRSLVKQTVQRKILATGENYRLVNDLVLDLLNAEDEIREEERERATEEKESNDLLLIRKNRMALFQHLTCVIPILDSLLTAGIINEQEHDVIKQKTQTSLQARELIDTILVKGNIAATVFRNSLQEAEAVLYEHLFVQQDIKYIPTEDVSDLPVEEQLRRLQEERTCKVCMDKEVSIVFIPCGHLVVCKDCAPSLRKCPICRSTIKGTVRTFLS
GST fusion form of full-length human XIAP, P98170, sequence (P98170 whole entry, the tested form may be a part): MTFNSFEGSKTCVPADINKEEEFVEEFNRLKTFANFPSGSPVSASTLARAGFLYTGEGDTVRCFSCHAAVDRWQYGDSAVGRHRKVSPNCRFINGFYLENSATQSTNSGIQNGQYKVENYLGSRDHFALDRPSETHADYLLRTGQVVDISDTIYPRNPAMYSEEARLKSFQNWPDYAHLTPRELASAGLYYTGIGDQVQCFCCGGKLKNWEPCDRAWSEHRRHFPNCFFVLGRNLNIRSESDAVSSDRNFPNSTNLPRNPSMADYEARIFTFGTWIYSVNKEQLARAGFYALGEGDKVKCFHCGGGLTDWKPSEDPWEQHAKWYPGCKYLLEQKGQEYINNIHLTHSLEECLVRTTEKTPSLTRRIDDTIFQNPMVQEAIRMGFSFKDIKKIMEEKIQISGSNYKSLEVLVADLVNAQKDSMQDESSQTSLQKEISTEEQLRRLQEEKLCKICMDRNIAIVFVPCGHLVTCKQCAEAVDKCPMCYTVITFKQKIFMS
Survivin, O15392, sequence (O15392 whole entry, looked up, the tested form may be a part): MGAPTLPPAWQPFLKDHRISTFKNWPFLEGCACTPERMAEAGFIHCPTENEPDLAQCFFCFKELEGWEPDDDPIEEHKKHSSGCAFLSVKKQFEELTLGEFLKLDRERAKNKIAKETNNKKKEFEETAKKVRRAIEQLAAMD

B1: endogenous caspase-9 of HeLa S100 extract, activated by dATP and cytochrome c (protein)
chain: MDEADRRLLRRCRLRLVEELQVDQLWDALLSRELFRPHMIEDIQRAGSGSRRDQARQLIIDLETRGSQALPLFISCLEDTGQDMLASFLRTNRQAAKLSKPTLENLTPVVLRPEIRKPEVLRPETPRPVDIGSGGFGDVGALESLRGNADLAYILSMEPCGHCLIINNVNFCRESGLRTRTGSNIDCEKLRRRFSSLHFMVEVKGDLTAKKMVLALLELAQQDHGALDCCVVVILSHGCQASHLQFPGAVYGTDGCPVSVEKIVNIFNGTSCPSLGGKPKLFFIQACGGEQKDHGFEVASTSPEDESPGSNPEPDATPFQEGLRTFDQLDAISSLPTPSDIFVSYSTFPGFVSWRDPKSGSWYVETLDDIFEQWAHSEDLQSLLLRVANAVSVKGIYKQMPGCFNFLRKKLFFKTS
[1]
  caspase activity in HeLa extracts (cleavage of 35S-labeled procaspase-3): Caspase activity was completely inhibited by 250 nM of cIAP1

B2: OmiΔPDZ (Omi with the PDZ domain deleted, C-terminal hexa-His tagged) (protein)
chain: AVPSPPPASPRSQYNFIADVVEKTAPAVVYIEILDRHPFLGREVPISNGSGFVVAADGLIVTNAHVVADRRRVRVRLLSGDTYEAVVTAVDPVADIATLRIQTKEPLPTLPLGRSADVRQGEFVVAMGSPFALQNTITSGIVSSAQRPARDLGLPQTNVEYIQTDAAIDFGNSGGPLVNLDGEVIGVNTMKVTAGISFAIPSDRLREFLHRGEKKNSSSGISGSQHHHHHH
[1]
  cleavage of cIAP1 in vitro (SDS-PAGE, silver staining): The Omi?PDZ at 2.5 nM cleaved the full-length cIAP1 molecules into smaller fragments, whereas the Omi WT enzyme, at the same concentration, still left some uncleaved full-length cIAP1 molecules

B3: OmiΔ8 (Omi without the AVPS tetrapeptide, C-terminal hexa-His tagged) (protein)
chain: PPPASPRSQYNFIADVVEKTAPAVVYIEILDRHPFLGREVPISNGSGFVVAADGLIVTNAHVVADRRRVRVRLLSGDTYEAVVTAVDPVADIATLRIQTKEPLPTLPLGRSADVRQGEFVVAMGSPFALQNTITSGIVSSAQRPARDLGLPQTNVEYIQTDAAIDFGNSGGPLVNLDGEVIGVNTMKVTAGISFAIPSDRLREFLHRGEKKNSSSGISGSQRRYIGVMMLTLSPSILAELQLREPSFPDVQHGVLIHKVILGSPAHRAGLRPGDVILAIGEQMVQNAEDVYEAVRTQSQLAVQIRRGRETLTLYVTPEVTEHHHHHH
[1]
  cleavage of cIAP1 in vitro (SDS-PAGE, silver staining): A concentration (25 nM), 10-fold higher than the wild-type, was required to cleave IAP
  proteolytic efficiency against Omi WT: The proteolytic efficiency of Omi?8 was, therefore, 10-fold lower than that of Omi WT regarding cIAP1 cleavage

B4: Omi WT (wild-type mature Omi/HtrA2, C-terminal hexa-His tagged, recombinant from E. coli) (protein)
chain: AVPSPPPASPRSQYNFIADVVEKTAPAVVYIEILDRHPFLGREVPISNGSGFVVAADGLIVTNAHVVADRRRVRVRLLSGDTYEAVVTAVDPVADIATLRIQTKEPLPTLPLGRSADVRQGEFVVAMGSPFALQNTITSGIVSSAQRPARDLGLPQTNVEYIQTDAAIDFGNSGGPLVNLDGEVIGVNTMKVTAGISFAIPSDRLREFLHRGEKKNSSSGISGSQRRYIGVMMLTLSPSILAELQLREPSFPDVQHGVLIHKVILGSPAHRAGLRPGDVILAIGEQMVQNAEDVYEAVRTQSQLAVQIRRGRETLTLYVTPEVTEHHHHHH
[2]
  cleavage of IAP in vitro: As shown in FIG. 1A, Omi WT cleaved IAP proteins
[3]
  cleavage of IAP in vitro: the wild-type Omi cleaved various forms of IAP proteins, including cIAP1, cIAP2, XIAP, Livin α and Livin β
[1]
  IAP cleavage and caspase reactivation in HeLa S100 extracts: Omi at 75 or 10 nM resulted in similar amount IAP cleavage and caspase reactivation for mutant and wild-type cIAP1, respectively
  cleavage of cIAP1 in vitro (SDS-PAGE, silver staining): Wild-type Omi (Omi WT) protein at 2.5 nM (nano Molar) almost completely cleaved 50 nM cIAP1
[4]
  cleavage of IAP in vitro: the wild-type Omi cleaved various forms of IAP proteins, including cIAP1, cIAP2, XIAP, Livin α and Livin β
[5]
  cleavage of Livin in vitro (Western blot, anti-Livin): Omi WT cleaved Livin α and Livin β
[6]
  cleavage of Livin in vitro (Western blot, anti-Livin): Omi WT cleaved Livin α and Livin β
[7]
  proteolytic processing of Smac by Omi: Smac, therefore, was not cleavable by Omi
[8]
  cleavage in vitro (Western blot, anti-Survivin; 25 nM Survivin, 150 nM Omi WT): This cleavage activity, however, was absent for Survivin
[9]
  IAP cleavage and caspase reactivation in HeLa S100 extracts: Omi at 75 or 10 nM resulted in similar amount IAP cleavage and caspase reactivation for mutant and wild-type cIAP1, respectively
  resistance to Omi protease against wild-type cIAP1: mutant cIAP1 is ˜7.5-fold more resistant to Omi protease

B5: Omi SA (protease dead mutant Omi S306→Ala, C-terminal hexa-His tagged) (protein)
chain: B4 chain with S173A
[1]
  cleavage of cIAP1 in vitro (Western blot, anti-GST): Omi WT cleaved the cIAP1, but the Omi SA did not
